Assay results as given in article PMC10779274.
“And” between values parts separate entries of the source, which are not always exact repeats. Identical values can stand only once.

Columns and labels:
[1] = biological target: Lsm protein of Haloferax mediterranei (Haloferax mediterranei); assay: SEC; HiPrep 16/60 Sephacryl S-200 HR, 20 mM Tris-HCl pH 7.5, 2 M NaCl, 0.5 mL/min, calibrated with protein standards; without RNA
[2] = biological target: Lsm protein of Haloferax mediterranei (Haloferax mediterranei); assay: SEC; HiPrep 16/60 Sephacryl S-200 HR, 20 mM Tris-HCl pH 7.5, 1 M NaCl, 0.5 mL/min, calibrated with protein standards; without RNA
[3] = biological target: Lsm protein of Haloferax mediterranei (Haloferax mediterranei); assay: SEC; HiPrep 16/60 Sephacryl S-200 HR, 20 mM Tris-HCl pH 7.5, 1.5 M NaCl, 0.5 mL/min, calibrated with protein standards; without RNA; peaks checked by Western blot with anti-Lsm
[4] = biological target: Lsm protein of Haloferax mediterranei (Haloferax mediterranei); assay: SEC; HiPrep 16/60 Sephacryl S-200 HR, 20 mM Tris-HCl pH 7.5, 0.5 M NaCl, 0.5 mL/min, calibrated with protein standards; without RNA; peaks checked by Western blot with anti-Lsm

Q: “Lsm protein of Haloferax mediterranei (natural protein)” was tested. Which stoichiometry N [1] did it give?
A: The stoichiometry N was 36 subunits.

Q: And the stoichiometry N [2]?
A: The stoichiometry N was 36 subunits.

Q: What about the stoichiometry N [3] of the same substance?
A: Its stoichiometry N is 72 subunits and 36 subunits.

Q: And the stoichiometry N [4]?
A: Its stoichiometry N is 36 subunits.
